± gives the standard deviation of the averaged measurements.
Tested on: Saccharomyces cerevisiae
Assay: protein stability index of tFT-peptide fusion (C-terminal peptide) (PSI (0-1 scale)); higher = more stable (slower turnover)
Settings: genetic background: wild type; temperature: 30 C
Experimental: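 Multiplexed protein stability (MPS) profiling in S. cerevisiae. Random 12-aa peptides (tFT-X12 library) are fused to the C-terminus of a sfGFP-mCherry tandem fluorescent timer, after mCherry and a GGGS linker. Cells are FACS-sorted into 8 mCherry/sfGFP bins and deep-sequenced. The protein stability index (PSI) is the read-weighted bin average, scaled from 0 (unstable) to 1 (stable). Only peptides with >10 reads are reported; cells were grown at 30 °C in SC-His with glucose.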
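Further: PSI is a weighted mean of sequencing reads over stability bins, variants kept only with over 10 reads, mCherry proximal and sfGFP distal, peptide attached via GGGS linker.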

## RGGGGGGDCVGA
  protein stability index: 0.727 ± 0.018

## AIGAVEGGRMRE
  protein stability index: 0.5748 ± 0.0048

## LLLLPPPPPPPT
  protein stability index: 0.684 ± 0.046

## YPTLMRNGTEKT
  protein stability index: 0.696 ± 0.017

## LLLARDLAHPLI
  protein stability index: 0.705 ± 0.015

## KGWGDGPGSYVN
  protein stability index: 0.68 ± 0.035

## VCNLSRRGLCHG
  protein stability index: 0.584 ± 0.11

## LVDARVRLTFVI
  protein stability index: 0.536 ± 0.014

## PPIWYAKHRPAP
  protein stability index: 0.6904 ± 0.0069

## LLGWRFFYLGVG
  protein stability index: 0.688 ± 0.051

## PRSRSGVAQGPE
  protein stability index: 0.6607 ± 0.0039

## IHQDGEQKETRK
  protein stability index: 0.6948 ± 0.0047

## PTKSQNEKTKAE
  protein stability index: 0.679 ± 0.037

## KASAASLFILMS
  protein stability index: 0.611 ± 0.012

## LISSVRLACGVS
  protein stability index: 0.554 ± 0.061

## TDYSSPKTSLSR
  protein stability index: 0.668 ± 0.056

## KKKNEKQNRLKN
  protein stability index: 0.769 ± 0.029

## PSAFSPPARISL
  protein stability index: 0.761 ± 0.066

## GRNCGHSCANRP
  protein stability index: 0.696 ± 0.027

## INSEKKKDRNKL
  protein stability index: 0.779 ± 0.02

## SDVKFGFCGVAS
  protein stability index: 0.655 ± 0.028

## LGLGSFPLMDLS
  protein stability index: 0.738 ± 0.015

## PKSGRAVMQGEG
  protein stability index: 0.631 ± 0.071

## ALYQNWITITRN
  protein stability index: 0.657 ± 0.022

## RLSCCKCRGGAV
  protein stability index: 0.6979 ± 0.0042

## RGRGGGGVVGRW
  protein stability index: 0.7119 ± 0.0022

## SRVERRRTSREG
  protein stability index: 0.672 ± 0.083

## ISLGVDFSFCSL
  protein stability index: 0.7014 ± 0.0042

## PTTVSRPPPPSP
  protein stability index: 0.711 ± 0.009

## QTGPPDPPLSPP
  protein stability index: 0.643 ± 0.014

## FRQQGGERVRWG
  protein stability index: 0.66 ± 0.0088

## EGDGQGGGGQGG
  protein stability index: 0.695 ± 0.011

## WEGVGERVGGGA
  protein stability index: 0.638 ± 0.017

## KNKKKNKNNKKK
  protein stability index: 0.7048 ± 0.00079

## LSPPPPPPVFSP
  protein stability index: 0.727 ± 0.026

## KTNIKKQSKISK
  protein stability index: 0.778 ± 0.18

## ISQAIMTNPIKE
  protein stability index: 0.598 ± 0.14

## THKGAPTCRSAR
  protein stability index: 0.6723 ± 0.0037

## SLLPRLTPHSPI
  protein stability index: 0.75 ± 0.051

## PLKTDSVPEFTA
  protein stability index: 0.5811 ± 0.0033

## GVGRGGAVENKV
  protein stability index: 0.742 ± 0.054

## SSPLPPPHASHP
  protein stability index: 0.7104 ± 0.0043

## REEGGWGEAWRE
  protein stability index: 0.726 ± 0.049

## GFVRGDRSGVGG
  protein stability index: 0.702 ± 0.036

## RNIQKKKKIQHI
  protein stability index: 0.514 ± 0.047

## RCPPPQPPVRKV
  protein stability index: 0.642 ± 0.1

## GFVGTVHLKCIS
  protein stability index: 0.642 ± 0.031

## GPVAYSMDILVE
  protein stability index: 0.66 ± 0.058

## VFCGCGGCVSLG
  protein stability index: 0.655 ± 0.014

## VALSLTSIFFMS
  protein stability index: 0.556 ± 0.041

## ECSPRQVPSLAE
  protein stability index: 0.694 ± 0.028

## TPPRHTRTSQTV
  protein stability index: 0.648 ± 0.0083

## PIRPQSSVSLKQ
  protein stability index: 0.64958 ± 0.00064

## RPTPLSTPPPLG
  protein stability index: 0.644 ± 0.039

## FLVSPFTLFPFS
  protein stability index: 0.754 ± 0.12

## LFLYLGSGARAV
  protein stability index: 0.721 ± 0.019

## WVFSGTWSSVSG
  protein stability index: 0.671 ± 0.027

## DRVHVSNGYLEF
  protein stability index: 0.684 ± 0.1

## AVCSLLVYAPDR
  protein stability index: 0.652 ± 0.059

## EVTGGRGGEGGV
  protein stability index: 0.694 ± 0.046

## LYSGADPLPWGR
  protein stability index: 0.716 ± 0.01

## SETGSGGLFSLP
  protein stability index: 0.693 ± 0.018

## SRLGFPFTGGGR
  protein stability index: 0.6597 ± 0.0062

## VGLGLSVGKKEI
  protein stability index: 0.651 ± 0.098

## WMTFTTAVTDGG
  protein stability index: 0.656 ± 0.046

## SPVRSQPALLVV
  protein stability index: 0.565 ± 0.0096

## QGSKQKIISAAT
  protein stability index: 0.6807 ± 0.0064

## GGAGEAWGGLRW
  protein stability index: 0.767 ± 0.025

## LRGAWRISIEGG
  protein stability index: 0.666 ± 0.036

## VVVFPYCPLPLV
  protein stability index: 0.597 ± 0.076

## GGGWGGGGGVWG
  protein stability index: 0.686 ± 0.047

## WRLFFGVNLIKF
  protein stability index: 0.622 ± 0.037

## PSPPHLCPSPFA
  protein stability index: 0.7518 ± 0.0015

## GGVGRSWQEVGG
  protein stability index: 0.72 ± 0.025

## ARNVDNIGYENS
  protein stability index: 0.698 ± 0.013

## IRNACRINESQC
  protein stability index: 0.698 ± 0.017

## FPPPSPPPLSPC
  protein stability index: 0.689 ± 0.024

## STSRSFFFCSFL
  protein stability index: 0.644 ± 0.072

## DTVYSRAIAANA
  protein stability index: 0.545 ± 0.012

## GAWVAVTWAAGL
  protein stability index: 0.729 ± 0.018

## NIIRGVIAGNPA
  protein stability index: 0.747 ± 0.026

From the supplement of paper PMC10724198
